Reference: the supplement of paper PMC9732359
± gives the uncertainty stated by the source.

Experiment: protein stability index of a GFP-peptide fusion (yeast GPS) (PSI 1-4); higher = more stable; sorted into four equal gates, so the index is relative within each strain
In short: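 Each library plasmid carries Cherry plus GFP with a tiled 17-residue yeast protein peptide fused downstream, and the pooled library was carried in yeast. Mid-log cultures in leucine-free medium were sorted into four equal gates by GFP/Cherry ratio. Reads from Illumina sequencing of PCR-amplified plasmids from each gate were assigned to strains by barcodes. Per peptide, the protein stability index was computed as the summed products of gate read frequency and gate number.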

| Sequence | protein stability index (doa10∆) | protein stability index (pdr5∆) | protein stability index (san1∆) | protein stability index (ubr1∆) |
| --- | --- | --- | --- | --- |
| IGQLIGEVMKELSEEKY [RPT4] | 3.27 ± 0.063 | 3.42 ± 0.076 | 3.44 ± 0.067 | 3.27 ± 0.042 |
| PHELTESVLPAARYDYA [QCR2] | 2.22 ± 0.061 | 1.92 ± 0.046 | 2.09 ± 0.081 | 1.92 ± 0.044 |
| SKLKEEEAALLIKERQE [ESC2] | 2.85 ± 0.074 | 2.88 ± 0.065 | 2.83 ± 0.043 | 2.9 ± 0.054 |
| TAVLSTTARAKARAKKT [RPN2] | 3.31 ± 0.11 | 3.17 ± 0.077 | 3.15 ± 0.075 | 3.19 ± 0.072 |
| AAESKKYRQTKLSKEER [RPL5] | 3.1 ± 0.23 | – | 3.05 ± 0.22 | 3.06 ± 0.26 |
| KIINKPNELSQILTVDP [RPC82] | 3.13 ± 0.28 | 2.56 ± 0.13 | 3.01 ± 0.075 | 2.78 ± 0.09 |
| SNTSTSKMLDAASSQVS [SNF12] | 2.51 ± 0.052 | 2.8 ± 0.042 | 2.5 ± 0.12 | 2.83 ± 0.051 |
| HTSPHQPSDVKPTSHKQ [SIR4] | 2.76 ± 0.057 | 3.08 ± 0.059 | 2.9 ± 0.047 | 2.52 ± 0.044 |
| INIQSFKDVEHISFNFS [BRR2] | 2.67 ± 0.081 | 2.79 ± 0.13 | 2.67 ± 0.092 | 2.75 ± 0.061 |
| IDIQTQDLNQRFQDPYV [RRI1] | – | 2.86 ± 0.18 | 2.28 ± 0.22 | – |
| LSTLPAGKSLVSKSEPK [QCR2] | 2.95 ± 0.17 | 3.27 ± 0.1 | 2.68 ± 0.11 | 3.44 ± 0.14 |
| TRAMEYLKFRELPAGQN [RPB2] | 2.4 ± 0.072 | 2.75 ± 0.084 | 3.13 ± 0.071 | 3.02 ± 0.13 |
| NHNKTKLLKSLKNTKYF [PRP8] | 1.8 ± 0.078 | 1.83 ± 0.052 | 1.54 ± 0.095 | 2.15 ± 0.073 |
| FSNVELPQCIIPSSYIK [ARP7] | 2.38 ± 0.042 | 2.38 ± 0.041 | 2.28 ± 0.051 | 2.45 ± 0.032 |
| SQHKKILEELDFVRNEL [SMC3] | 3.35 ± 0.14 | 3.09 ± 0.096 | 3.2 ± 0.08 | 3.01 ± 0.057 |
| RRSTPFSKIAEYYRIQK [ESC2] | 2.77 ± 0.071 | 2.9 ± 0.094 | 2.72 ± 0.078 | 2.94 ± 0.11 |
| RIVGSELIQKYLGDGPR [RPT2] | 2.21 ± 0.14 | 3.14 ± 0.16 | 3.33 ± 0.27 | 3.11 ± 0.13 |
| NNKNNSITTGNDNENIV [MED2] | 2.89 ± 0.046 | 2.94 ± 0.047 | 2.95 ± 0.044 | 2.99 ± 0.046 |
| SAAGNKAIPTFSFGKPF [YIL149C/MLP2] | 2.73 ± 0.046 | 2.86 ± 0.055 | 2.96 ± 0.045 | 2.96 ± 0.034 |
| LLIATNLKEYNKFMSIF [SRB8] | 1.64 ± 0.051 | 1.82 ± 0.089 | 2.17 ± 0.2 | 1.94 ± 0.086 |
| IGESARIIREMFAYAKE [RPT4] | 2.31 ± 0.065 | 2.29 ± 0.064 | 2.04 ± 0.063 | 1.75 ± 0.038 |
| KTVAVDSVFEQNEMIDA [RPL3] | 2.57 ± 0.095 | 2.75 ± 0.12 | 2.31 ± 0.11 | 2.51 ± 0.042 |
| PLPVETPRDRRKSVFAP [SSN2] | 2.67 ± 0.069 | 2.31 ± 0.077 | 2.99 ± 0.099 | 2.86 ± 0.049 |
| LFNESFIMASVGKYDKA [SRP72] | 3 ± 0.29 | 2.85 ± 0.27 | – | – |
| AYGNWFNGLKPLIQNSM [PRP8] | 2.94 ± 0.063 | 3.31 ± 0.099 | 2.85 ± 0.11 | 3.13 ± 0.049 |
| IFNSGKMIILDKLLKRL [ISW2] | 2.17 ± 0.077 | 1.93 ± 0.055 | 1.55 ± 0.1 | 2.17 ± 0.046 |
| KSTYRTPNFDDVLKENN [RIP1] | 1.54 ± 0.087 | 1.45 ± 0.12 | 1.38 ± 0.14 | 2.1 ± 0.079 |
